This note sets out measurements from paper PMC4258549.

Assay [1] addresses biotinylated C4b (human). Nature of the assay: AlphaScreen or HTRF.
For assay [2], the target named is biotinylated C4b (human). Nature of the assay: AlphaScreen or HTRF. The source holds these as a separate data set. In general terms: Alpha assays give light when donor and acceptor beads are brought close together.
The target in assay [3] is complement component C4b (human). Nature of the assay: AUC.
Assay [4] concerns the target biotinylated C4b (human). Nature of the assay: SPR. (Surface plasmon resonance follows binding to a sensor surface in real time, without labels.)

B1: complement component C2, recombinant, full-length (natural protein)
chain: APSCPQNVNISGGTFTLSHGWAPGSLLTYSCPQGLYPSPASRLCKSSGQWQTPGATRSLSKAVCKPVRCPAPVSFENGIYTPRLGSYPVGGNVSFECEDGFILRGSPVRQCRPNGMWDGETAVCDNGAGHCPNPGISLGAVRTGFRFGHGDKVRYRCSSNLVLTGSSERECQGNGVWSGTEPICRQPYSYDFPEDVAPALGTSFSHMLGATNPTQKTKESLGRKIQIQRSGHLNLYLLLDCSQSVSENDFLIFKESASLMVDRIFSFEINVSVAIITFASEPKVLMSVLNDNSRDMTEVISSLENANYKDHENGTGTNTYAALNSVYLMMNNQMRLLGMETMAWQEIRHAIILLTDGKSNMGGSPKTAVDHIREILNINQKRNDYLDIYAIGVGKLDVDWRELNELGSKKDGERHAFILQDTKALHQVFEHMLDVSKLTDTICGVGNMSANASDQERTPWHVTIKPKSQETCRGALISDQWVLTAAHCFRDGNDHSLWRVNVGDPKSQWGKEFLIEKAVISPGFDVFAKKNQGILEFYGDDIALLKLAQKVKMSTHARPICLPCTMEANLALRRPQGSTCRDHENELLNKQSVPAHFVALNGSKLNINLKMGVEWTSCAEVVSQEKTMFPNLTDVREVVTDQFLCSGTQEDESPCKGESGGAVFLERRFRFFQVGLVSWGLYNPCLGSADKNSRKRAPRSKVPPPRDFHINLFRMQPWLRQHLGDVLNFLPL
As a reminder, the IC50 is the concentration that inhibits the measured activity by half. Consider B1, for which the IC50 stood at 460 nM in assay [1] and 180 nM in assay [2].

B2: extracellular adherence protein (Eap), recombinant, full-length, untagged (natural protein)
chain: AAKPLDKSSSTLHHGHSNIQIPYTITVNGTSQNILSSLTFNKNQNISYKDIENKVKSVLYFNRGISDIDLRLSKQAEYTVHFKNGTKRVIDLKSGIYTADLINTSDIKAISVNVDTKKQPKDKAKANVQVPYTITVNGTSQNILSNLTFNKNQNISYKDLEGKVKSVLESNRGITDVDLRLSKQAKYTVNFKNGTKKVIDLKSGIYTANLINSSDIKSININVDTKKHIENKAKRNYQVPYSINLNGTSTNILSNLSFSNKPWTNYKNLTSQIKSVLKHDRGISEQDLKYAKKAYYTVYFKNGGKRILQLNSKNYTANLVHAKDVKRIEITVKTGTKAKADRYVPYTIAVNGTSTPILSKLKISNKQLISYKYLNDKVKSVLKSERGISDLDLKFAKQAKYTVYFKNGKKQVVNLKSDIFTPNLFSAKDIKKIDIDVKQYTKSKKK
Usually Kd stands for the concentration at which binding is half-saturated. Low readings indicate higher affinity, high ones lower affinity. As usually defined, the stoichiometry N is the number of molecules, sites or subunits per partner or assembly. For the molecule B2, the Kd in assay [1] amounted to 185 nM. This molecule gave a stoichiometry N in assay [3] of 1. In assay [4], this molecule came in with a half-inhibitory concentration (IC50) of 50 nM.
